Measurements from publication PMC6792017 (The EMBO Journal, 2019).

Target: T1, HA-tagged caspase-1 p10 plus p20 C285S active-site mutant (human, UniProt P29466 120-297; P29466 317-404, C285S)
T1 sequence (looked up) 1: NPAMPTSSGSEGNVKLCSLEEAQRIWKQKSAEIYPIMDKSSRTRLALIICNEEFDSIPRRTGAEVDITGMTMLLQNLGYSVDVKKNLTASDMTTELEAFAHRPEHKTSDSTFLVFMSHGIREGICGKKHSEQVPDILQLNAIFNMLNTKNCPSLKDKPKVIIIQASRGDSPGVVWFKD
T1 sequence (looked up) 2: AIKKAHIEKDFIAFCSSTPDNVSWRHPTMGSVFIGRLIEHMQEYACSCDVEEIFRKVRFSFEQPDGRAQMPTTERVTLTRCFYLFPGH
Assay: non-reducing SDS-PAGE with Western blot

B1: active recombinant human PRDX4 (non-reduced) (enzyme, UniProt Q13162 38-271, looked up)
chain: WETEERPRTREEECHFYAGGQVYPGEASRVSVADHSLHLSKAKISKPAPYWEGTAVIDGEFKELKLTDYRGKYLVFFFYPLDFTFVCPTEIIAFGDRLEEFRSINTEVVACSVDSQFTHLAWINTPRRQGGLGPIRIPLLSDLTHQISKDYGVYLEDSGHTLRGLFIIDDKGILRQITLNDLPVGRSVDETLRLVQAFQYTDKHGEVCPAGWKPGSETIIPDPAGKLKYFDKLN
B1: binds.
